In the DeepSol protein solubility set:

Test: soluble on expression in E. coli; label from the status in PepcDB or PDB records

Sequence | soluble on expression in E. coli
MGGSHHHHHHGMASLAPGSSRVELFKRQSSKVPFEKDGKVTERVVHSFRLPALVNVDGVMVAIADARYETSFANSLIDTVAKYSVDDGETWETQIAIKNSRASSVSRVVDPTVIVKGNKLYVLVGSYNSSRSYWTSHGDARDWDILLAVGEVTKSTAGGKITASIKWGSPVSLKEFFPAEMEGMHTNQFLGGAGVAIVASNGNLVYPVQVTNKKKQVFSKIFYSEDEGKTWKFGKGRSAFGCSEPVALEWEGKLIINTRVDYRRRLVYESSDMGNTWLEAVGTLSRVWGPSPKSNQPGSQSSFTAVTIEGMRVMLFTHPLNFKGRWLRDRLNLWLTDNQRIYNVGQVSIGDENSAYSSVLYKDDKLYCLHEINSNEVYSLVFARLVGELRIIKSVLQSWKNWDSHLSSICTPADPAASSSERGCGPAVTTVGLVGFLSHSATKTEWEDAYRCVNASTANAERVPNGLKFAGVGGGALWPVSQQGQNQRYHFANHAFTLVASVTIHEVPKGASPLLGASLDSSGGKKLLGLSYDKRHQWQPIYGSTPVTPTGSWEMGKRYHVVLTMANKIGSVYIDGEPLEGSGQTVVPDERTPDISHFYVGGYKRSGMPTDSRVTVNNVLLYNRQLNAEEIRTLFLSQDLIGTEAHMD | soluble
MSLLTVVQDQQSSNDDSGVGRSLLDEIVRDGARQMLAAALAAEVAAYIEQFAEHLDEHGRRLVVRNGYHHERDVLTAAGAVTVTAPRVNDRRVDAETGERQRFSSAILPAWSRKSPQMTEVLPLLYLHGLSSGDFSAALEQFLGTGAGLSASKITRLTAQWQDEAKAFADRDLSGTDFVYLWVDGIHLKVRLEQQKLCLLVMIGVRADGRKELVALTDGFRESTESWADLLRSCRRRGMTAPVLAVGDEALGFWKALREVFPDTREQRCWFHKQANVLAALPKSAHPGATAAMREIYNAEDIDKAQVAIKAFEVDYGAKYPKAVAKIVDDADVLLEFYRYPAEHWIHLRTTNPIESTFATVRLRTKVTKGPGSRAAGIAMAYKLIDAAQARWRAVNAPHLVALVRAGAVFHKGKLLEREGHHHHHH | not soluble
MGSDKIHHHHHHENLYFQGMKIALIIENSQAAKNAVVHEALTTVAEPLGHKVFNYGMYTAEDKASLTYVMNGLLAGILLNSGAADFVVTGCGTGMGSMLAANAMPGVFCGLVIDPTDAFLFGQINDGNAISMPYSKGFGWAAELNLQDVYRKLFDGERGLGYPRERAEIMRKNRGILRELKDASCRDMLTVLKTVDQDLLRAAIAGEKFAELFYPNCKDDAIANYLRSLDA | soluble
YYTDPSLIRQMWDKLERDGFTGGKILDPSMGTGNFFAAMPKHLREKSELYGVELDTITGAIAKHLHPNSHIEIKGFETVAFNDNSFDLVISNVPFANIRIADNRYDRPYMIHDYFVKKSLDLLHDGGQVAIISSTGTMDKRTENILQDIRETTEFLGGVRLPDSAFKAIAGTSVTTDMLFFQKHLDKGYVA | not soluble
MGSDKIHHHHHHMAEVFHERLKSPIPTRELARRSRELQAVMKKENIDCILAQNITQYMGGCNRWLTDTTAENHYPQSSFLTKDGDIGYIACSGPPLDLYPPSHLLRIGKPWAAAPYFSVFNFTWDWEGRLFVKWVQENNVQKVGIAGMEMIMWNYYNYIAEKLPGVEIVDASSLFDEIRAVKSEDEIKFLEKSAALQDKVMGYLPALIQPGVREYEVRAKIMQLVTDHGGEEMIVIMGSAPRGEKFSLLPSFFQNRELQTGDELYVKLQCSGPGGLFTTVGRMFSIGCEPSGALEQGWREAAAAQEKLAGLLQVGADPQVIFGQYNAYLESKGYNQETGLFVYGQGYDHIERPSIQPGETMKLAKDMCLAANTSLISAERTVYCADSFILKPSGPQKLHRTPLTIFRT | not soluble
MGSDKIHHHHHHMHLSRDVVLLITHSGDFFTIDRVAEALAKKGVQPFRLDTDKFPLQVQLTAHFDKSQSHHTIEYDNHSISTEQVQAVWMRRIWEPNLSQELAPKFQEACIRESKATLDAFWDSLKGARWVDDLERINYANNKLRQLRIASEVGFVIPQTLVTNKAQAAREFFGQVNGKMVSKLLTTLSRSMEANSSFFLYTSIVKEKDLEDAESLRYCPMVFQEQIPKQMELRVVYVNGHVFVGALNADVYAATKADWRKPGVEVGAWQHHQLPDELVRRLQAFMGKFGLLFGSLDFILTPSGEYVFLEVNPIGEWGMLEKDLDLPIANAIADILLQN | not soluble
MSLNTQDFLAGYTKRFVDNKEEDMSLDEYLELCKTDPTAYANPAERLLMAIGEPELIDTRHDPVLSRIFSNKIIHHYEVFEDFYGMEEPIEQIVGFLKHAAQGLEETKQVLYLLGPVGGGKSSIAEKLKDLMERVPFYAIKGSPVFESPLSLFNPQEDGELLRERFGIPTRYLRYLMSPWAVKRLQEYNGDISKFRVIKVKPSRLKQIAIAKTEPGDENNQDISSLVGKVDIRKLEEFSQDDPDAYSYSGGLCRANRGLLEFVEMFKAPIKVLHPLLTATQEGNYNATEGLSAIPFEGIILAHSNESEWQSFRNNKNNEAFIDRINIVKVPYCLRVSEEIKIYQKLIHNSSLANAPCAPGTLDMLAQFSVLTRLKEPQNSSIYSKMRVYNGESLKDTDPKAKSYQEYRDFAGVDEGMSGISTRFAFKILSKVFNFDHTEVAANPVHLMYVLERQIEQEQFPQELHETYLNFIKEYLATKYVDFIGKEIQTAYLESYSEYGQNIFDRYITYADFWIQDQDYRDPDTGEIFDRALLNLELEKIEKPAGISNPKDFRNEVVNFVLRARANNRGKNPVWNSYEKLKSVIEKKMFTNTEDLLPVISFNAKASEEDKKKHEEFISRMVEKGYTRKQVRLLCEWYLRVRKSQEGHHHHHH | soluble
ATFIEQQVGGNLTEASLALRLPTLLPYNGVLFLGNSLLVRLVDALTQLPESYPVYTNRGASGIDGLLATAAGIGIGSNKPVVAVIGDTSTLYDLNSFALFKNVTQPTLIFVINNNGGAIFDMLPVDEQVKDQFYRLPHNGDFSQIAAMFDLKYAHPYTWADLNSVVKQAYSRRKATLIEIKTNPSDG | not soluble
MKPYDLSEAVAVVTGGSSGIGLATVELLLEAGAAVAFCARDGERLRAAESALRQRFPGARLFASVCDVLDALQVRAFAEACERTLGCASILVNNAGQGRVSTFAETTDEAWSEELQLKFFSVIHPVRAFLPQLESRADAAIVCVNSLLASQPEPHMVATSAARAGVKNLVRSMAFEFAPKGVRVNGILIGLVESGQWRRRFEAREERELDWAQWTAQLARNKQIPLGRLGKPIEAARAILFLASPLSAYTTGSHIDVSGGLSRHA | soluble
MGSDKIHHHHHHMKESLISFIKEKIEEYNYRGAVVGVSGGVDSAVVLSLCVQALGKDRVFALILPERDSSKDSLKDAVDFCERLGVEYRKRSITPILRKIGVYRLFPPRLFLPDSIVKRYVLNRWNTLSKDPFLDDLRNTGPEEFLKGLAYYRIKHRIRMCLLYFEAEKRGYAVVGTTNRTEYLTGLYVKWGDEAVDIEPIMHLYKTQVFELAKEMNVPEKILKKPPSPDLIPGITDEMAFNMSYLELDRILMKLEKNEDLSDEDPKKVERVKKILELSEKYRRDIPITFDRI | not soluble
MSQNSDTFDSGLQMEVHKMAEADNSSVQQKFDAIRDYIGRKETTIILCEHDDSRKIKLTLNKQRMESSMFLTEMPDGGIQEKTKFHRNGLAVCSYNAFDEVDLPLADSYIFYGLPSNVEAFPRMLHGIEKSAHKENKIVFIDIVVSILEKIQIKVVSFELYNRKCTVPTWVAELVITYCAPIEEQQQRIEEIRRTRASVPVAISDAANGSAEMVPSNTTGSSGSPMSTAPVPAAKKEKVQYESIRQIRPNAQGRYFVPARMINMDIEMSNDEYSPDESENDENEYDYENAARYDDGYDEGHEYCQ | not soluble
LFPSFLKPLAAHALELALNRLLTLDPDTSQALRTLDGQCIALSLKTPAVELQIRVDGECLRVGPVDAAYEMDLKVHGTLAGFLGQLPWLEQVRRAGGAQTGRLRVAGDAELAQRLQQLARRFDPDWQQPFIVVFGELLGVQIAGVLRMTLRQLQRSAVDLAQSAAEFITEESSSVVPRAELEAFYEDVDVLRDDVERLATRLMKLCSEMAA | not soluble
MSLGISNAIDNSVRARVLGIKTEFRNFNTGRTFFLPQHVALLGQGNTAATYELTPFRATSAAQVGQRFGFGSPLHLAALQLLPDNNDGLRSIPLTIFPMGDNDAGVAAEGVLDLSGTASATATVRVRIGSQRSSLVTIPTGTTAEQAAALLVAGIQGNPFMPMTAAVDGTNANEVDVTAKWQGLSGNDLVVSIEGSIPGITVAITQPTGGAADPEVADTLALFGENVWYTQIVSCFNTANTDALDAFETFGEGRWDPILRRPLAVFTGTNETDPNTLAAIGDARRAQRTNLVTPVPGAQNLPCEIAAAWVARVARSANNDPASDFARLTLPGLTPGTDAQQWTHTQRDLLVKAGISTSIVRDGVAEISDTVTTYHPTGEVNPGYLFYKDTVKASNVLFNLDLIFNTREWDGAPLIPDDQPTTNARAKRPKDAVAVLSVLANNLGLDAIISDVPFTLENIRASINDQNPNRLDIIFPAKNSGNANIISADYFFGFFLGTEGHHHHHH | soluble
MGSDKIHHHHHHMGKTLAEKIFSEHVGRDVKAGEIVLARVDIAMAQDGTGPLMINEFRELGFKEVKVPKAFLFIDHASPSPRKELSNSQKMMREFGKEMGVKVFDAGDGISHQILAEKYVKPGDLVAGADSHTCTAGGLGAFGTGMGSTDVAIIFGLGQNWFKVPETIKVVVNGKLQDGVYAKDIILEIARILGSDGATYKALEFHGSCIENMNVEDRLTISNMAVEVGAKAGLMPSDEKTREFLKKMGREEDFRELKADPDAVYETEIEIDATTLEPLVSLPHYVDNVRKVSEVEKEKIKIDQVFIGTCTNGRLQDLEIALKILEKHGKHPDVRLIVGPASRKVYMDALEKGIIKKFVELGAAVIPPGCGPCVGIHMGVLGDGERVLSTQNRNFKGRMGNPNAEIYLASPATAAATAVTGYITDPRRFI | not soluble
MGSDKIHHHHHHTDENETNNGKRTDCYNGTPLTVRATATGFENVPGSEKPSTRASVTDEHLKTEFVDGDSIGIFSIKDSTIVDDINNIPLVYNVSNDSWNPVENSKTLYWYDGASYIAYYPYRKNITLDVSKDTDEAIASLTRNEKLQPSKDQSTKEKHTVSDLLIATGVPTTGNSSGIILNLQFKHQFTLLVLQPQAYIGCFAPENAGFVYHKESRILGTDSAAINVNLNGITPYQIDSVKFCAIVPSQKNARITGSYVTADGRNNTNTKINYSGSSITFASGKCYTLKVISPVPGKGSTERKLYPGDFVFQNETEKRIEIHPGDGMLEENGKIYDYQNAIGMVITCDSKKMTDVKCNENGWNHAYVMGFENLGTGRWGGMERIEEGITPMTKDDEIEKNMNGYSETEQMLKNYTANVQGSYSAFESIRKYRNSNKIPDGLNRSPWFVPSIGQWFDMLVNICGKSPRDFRNETSNGLNDTGWGQETLDKLTIQLSKVGNSLPQFSDTYRLGFSCSSQYDKDRCWMLLWHIDDPEYPNWDRVCLQGYDKKAYWNVRPFFAF | not soluble
MSFEEFTPLNEKSLVDYIKSTPALSSKIGADKSDDDLVIKEVGDGNLNFVFIVVGSSGSLVIKQALPYIRCIGESWPMTKERAYFEATTLRKHGNLSPDHVPEVYHFDRTMALIGMRYLEPPHIILRKGLIAGIEYPFLADHMSDYMAKTLFFTSLLYHDTTEHRRAVTEFCGNVELCRLTEQVVFSDPYRVSTFNRWTSPYLDDDAKAVREDSALKLEIAELKSMFCERAQALIHGDLHTGSVMVTQDSTQVIDPEFSFYGPMGFDIGAYLGNLILAFFAQDGHATQENDRKEYKQWILRTIEQTWNLFNKRFIALWDQNKDGPGEAYLADIYNNTEVLKFVQENYMRNLLHDSLGFGAAKMIRRIVGVAHVEDFESIEEDKRRAICERSALEFAKMLLKERRKFKSIGEVVSAIQQQS | soluble
LSDEDFRAVFGMTRSAFANLPLWRQQNLRRERGLF | soluble
MNTEEQPVTASLVAEAQRLDFLPTYFGPRLMMRGEALVYAWMRRLCERYNGAYWHYYALSDGGFYMAPDLAGRLEIEVNGNGFRGELSADAAGIVATLFALGQLAAEIADTDAADALIDRYHFLRGFAAGHPEAAAIYRAID | soluble
